Results as given in patent US20240124857A1, “COMPOSITION FOR GUT HEALTH” (DUPONT NUTRITION BIOSCIENCES APS, priority 2021, published 2024).

B1: CRC22605: GDA1/CD39 family enzyme, accession WP_133471262.1, SEQ ID NO:14 (protein, listed as Paraglaciecola sp.)
chain: QSKKPCYIVYDAGSSGTRLYIYEQLGANLISHEGPKVSALADPIRYTHGKDLSDLDTITNEVASALDLIKLDGPLEEGKPKWSGFDWSKQCEAQSVKVFATAGMRIAEQINPADSLVLWQTLASKINAKVGHNIKVEARTLTGFEEGLFAWLSVKDVYPSGHYGMVEMGGASSQITFPCPQCSLANDAVKTVTVDGKPIQIYSYSYLGLGQNEAPYSLPFGVAGQVPKSCSYGVGANNPDWTIASCAVEIPITAKGSNTDIIDPYNYTKTGTKGTTNTLPAAHKNIPKWLLMGAFNYAKETDIDDFCFNQHDGYYNAFTACFNPIYLDKYLKTLNIQAEQSSKVDVSWTQGAVICQIENCLATITPPPVCRWMKSGCLAY
B2: CRC22606: GDA1/CD39 family enzyme, accession OQW93475.1, SEQ ID NO:15 (protein, listed as Beggiatoa sp.)
chain: ETNGPAACHIVYDAGSSGTRLYIYEQQDKAWLEHEGPKVSALADPVREIRGKHWKDAESVTIEVVSALDSIKQDGPVKGDKPAWKAFDWTKHCQIKSAGVYATAGMRLAEQANKERSVTLWASLKQKLAAKLGPTVDIEARTLTGYEEGLYAWLAVREQQPDDSFAIAEMGGASAQITFPCAKCDENDPDTKTVQLSGKHLQIYSYSFLGLGQDEASHSLGFPTSCANGIGTQQSGWKAQDCANQIQLTGSKGIRDPYDFDGEQRGAHEQPPIAQADSNRWFLTGAFNYMNASNIETYCLKDPKLSEEESFCFRSIYPEKYLETLKIPVNSPKMNVSWTQGAVICKANSCLEAATKTPPLCRWLDKGCLP
B3: CRC22620: GDA1/CD39 family enzyme, accession NBS62745.1, SEQ ID NO:16 (protein, listed as Betaproteobacteria sp.)
chain: EDAARYLAVIDAGSSGSRLHLYERTAAERSVAVKQLFEAKAGEALSSFERSPGDAGPRGIQPLLEQLLDRLALLNIERSAVHVHVLATAGMRRLDADNPAAAQVIYQSVRHTLSSAGVTARRIETLSGHLEGVYAWVDVNDLSGALASTPAGATVAVIEVGGASAQLAYSGEALAGAPVTAVRLNGRSHQVVSLTWLGLGQDEARRAMLNAARSRSNADEEHCYPDNRKAAGGLSAFDADGSRHLVARGRFSFEQCSEMYDAVIRPFDLPPLATAIRQSRRPLVGLASVYFSLADWQVIGQPGTLASTLRGQCEGEDAYGDKVIGFIRRDPKNRFAQTACANGTFIHALLFGPAGLRVDPAQVSAVARINGQPPSWARGFALLGR
B4: CRC25082: Acid phosphatase (Class A), accession WP_050460978.1, SEQ ID NO:19 (protein, listed as Herbaspirillum autotrophicum)
chain: KGAAGFLNGQTAPDSLAILPPPPAEDSVAFQADKAQYETGHVLRDPERVEQARQDADYRNFGHAFSAAFGMEISATHTPVLYQLLTEVLQDSHDYAMKAAKNHYKRVRPFVVYKDPTCTPGQDEKMALSGSYPSGHASFGWAAALVLAEINPARQTEILQRGYAFGKSRVICGAHWQSDVDNGQLMGAAVVAALHSNSQFAAALNAAKNEFAGLRAQDNKK
B5: CRC25084: Acid phosphatase (Class A), accession WP_088823167.1, SEQ ID NO:20 (protein, listed as Acinetobacter apis)
chain: ADSNNSFLQLNQVPDSLKIVPAPPAFNSVDFLRDKAAYDQARSLVGTARWQQAAVDADLSDANIGKSFSEAFGVEISPTNTPVTYEILRKLRTDAGGYATKTAKEHYMRMRPFVFFNSHTCTPNDEASLSKNGAYPSGHTTIGWSSALILAEIRPDRQNEILERGYQYGQSRVICGVHWQSDVDAGRITGSAIVARLHADKDFAKTLEDAKREIQKKIK
B6: CRC25085: Acid phosphatase (Class A), accession WP_092747651.1, SEQ ID NO:21 (protein, listed as Acinetobacter boissieri)
chain: LEQSNSFLQLAQVPDSLAIVPAPPAYNSVDFLRDKAAYDQAKSLVGTERWKVAAEDADLSDANIGKPFSQALGIEISPQNTPITYEILRKLRTDAGNYATKAAKEHYMRLRPFMFFNSHTCTPNDEANLSKNGAYPSGHTTIGWSSALVLAEIRPERQNEILQRGYEYGQSRVICGVHWQSDVDAGRITGSAIVARLHADKAFTKMLEEAKQEIQRKTK
B7: CRC25089: Acid phosphatase (Class A), accession WP_217352265.1, SEQ ID NO:22 (protein, listed as Paraburkholderia bonniea)
chain: AGSDGFLTAETAPSSLAILPPPPAENTVAFLNDKANYEIGRSLKNDARVALAASDANCKNINAIFSSAFGREISEEKTPKLYRLLLGVLQDSHDHAMKSAKNHYMRVRPFVMYGDKTCTPEEDNKMKNTGSYPSGHASFGWAAALVLSEINPERTTEILRRGYDFGQSRVVCGAHWQSDVDNGRLMGAAVVADLHNNDKFIKALEAAKAEFKENTPGN
B8: CRC25099: Acid phosphatase (Class A), accession WP_195761705.1, SEQ ID NO:23 (protein, listed as Pantoea sp.)
chain: LQSSGFLTAETAPDSLAILPPPPAENSVTFQSDKAQYEAGHVLRNVARTELASKDADYKNFGQAFSAAFGMEISESHTPVLYHLLSEVLQDSHDFAMRGAKDHYKRVRPFVIYKDSTCTPDKDKSMSTTGSYPSGHASFGWAAALILAEINPSRETEIIRRGYDFGESRVVCGAHWQSDVENGRIMGATVVASLHANAKFAELLSQAKNEFATLSAQDSK

Assay: ATPase activity at 0.05 ppm enzyme on 0.1 mM ATP (absorbance 620 nm)
Assay type: biochemical
Conditions: 50 mM IVIES buffer pH 5
Protocol: Enzyme activity towards ATP or ADP at pH 3 to 9: The ability of candidate enzymes to degrade ATP or ADP to AMP and free phosphate (Pi) was measured using a standard malachite green phosphate detection kit (Sigma Aldrich cat no. MAK307). The enzyme reactions were carried out in 96-well plates with a total volume of 150 μL and contained 250 μM of a substrate, 50 mM of a buffer, 5 mM CaCl2, and a variable concentration of enzyme. The substrate was ATP or ADP. The buffer was glycine (pH 3), acetate (pH 4, 4.5, 5), bis-Tris (pH 5.5, 6, 6.5), or Tris (pH 7, 8, 9). The concentration of enzyme varied from about 1 μg/mL to 1 ng/mL and was adjusted based on the activity of the enzyme so that the amount of phosphate released during the assay was with the dynamic range of the assay (5-100 μM phosphate). The enzyme concentration was determined by the absorbance at 280 nm and using the predicted molecular weight and molar extinction coefficient to calculate the concentration. The enzyme reaction was initiated by the addition of 15 μL enzyme with 135 μL of the other reaction components such that the final reaction composition was as previously described. The reaction was stopped after 5 min by mixing 80 μL of the reaction mixture with 20 μL of the malachite green working reagent. The malachite green working reagent was prepared according to the manufacturer's protocol by mixing 100 parts reagent A with 1 part reagent B. Phosphate standard solutions (0-80 μM) and a negative control reaction without enzyme were also mixed with the malachite green working reagent. All samples were tested in duplicate. The malachite green reaction mixture was allowed to rest at room temperature for 45-60 min and the absorbance at 620 nm was measured. Lastly, the absorbance of the phosphate standards were used to convert the absorbance readings of each sample into phosphate concentrations and the negative control was subtracted from each reaction.
Enzymes of interest were assayed against ATP substrate. The ATPase activity was measured at 0.05 ppm concentration in 50 mM IVIES buffer pH 6 and pH 5 with 0.1 mM ATP as substrate as described in Example 1. Commercial potato apyrase was used as reference. The absorbance at 620 nm was measured and the absorbance of a blank sample (water) was subtracted from each sample.

First: B1
Second: B2
The “Activity on ATP (absorbance at 620 nm, blank subtracted), pH 5.0” value (“Activity on ATP … pH 5.0” for short) of the first is higher: 0.50 for the first, 0.43 for the second.

First: B3
Second: B4
The “Activity on ATP … pH 5.0” value of the first is lower: 0.13 for the first, 0.93 for the second.

Compared with B5, B6 is higher in “Activity on ATP … pH 5.0” value: 0.20 for the first, 0.23 for the second.

First: B7
Second: B8
The “Activity on ATP … pH 5.0” value of the first is lower: 0.24 for the first, 1.05 for the second.

Same assay, conditions: 50 mM IVIES buffer pH 6

Going from B1 to B2, the “Activity on ATP (absorbance at 620 nm, blank subtracted), pH 6.0” value (“Activity on ATP … pH 6.0” below) falls from 0.28 to 0.21.

Going from B3 to B4, the “Activity on ATP … pH 6.0” value rises from 0.22 to 0.65.

Going from B5 to B6, the “Activity on ATP … pH 6.0” value rises from 0.17 to 0.20.

Going from B7 to B8, the “Activity on ATP … pH 6.0” value rises from 0.05 to 0.93.

Assay: pH profile of enzymes on 1 mM ATP
Assay type: biochemical
Conditions: 50 mM trisodium citrate/citric acid, 5 mM CaCl2, relative to the highest value
Protocol: The pH profile of additional enzymes of interest was assayed using 1 mM ATP, in 50 mM trisodium citrate/citric acid buffer with 5 mM CaCl2. Absorbance was read at 620 nm and all values were set relative to the highest one. Commercial potato apyrase was used as reference. […]

B1 and B2 are the same in “Relative activity on ATP, pH 3” value: 0.0 for the first, 0.0 for the second.

B3 and B4 are the same in “Relative activity on ATP, pH 3” value: 0.0 for the first, 0.0 for the second.

First: B5
Second: B6
The “Relative activity on ATP, pH 3” value of the first is lower: 0.4 for the first, 0.5 for the second.

First: B7
Second: B8
The “Relative activity on ATP, pH 3” value of the first is higher: 0.8 for the first, 0.0 for the second.

B1 and B2 are the same in “Relative activity on ATP, pH 3.5” value: 0.0 for the first, 0.0 for the second.

B3 and B4 are the same in “Relative activity on ATP, pH 3.5” value: 0.0 for the first, 0.0 for the second.

B5 and B6 are the same in “Relative activity on ATP, pH 3.5” value: 0.6 for the first, 0.6 for the second.

Going from B7 to B8, the “Relative activity on ATP, pH 3.5” value falls from 1.0 to 0.1.

B1 and B2 are the same in “Relative activity on ATP, pH 4” value: 0.0 for the first, 0.0 for the second.

B3 and B4 are the same in “Relative activity on ATP, pH 4” value: 0.0 for the first, 0.0 for the second.

First: B5
Second: B6
The “Relative activity on ATP, pH 4” value of the first is lower: 0.6 for the first, 0.8 for the second.

Going from B7 to B8, the “Relative activity on ATP, pH 4” value falls from 0.9 to 0.3.

First: B1
Second: B2
The “Relative activity on ATP, pH 4.5” value of the first is lower: 0.0 for the first, 0.3 for the second.

B3 and B4 are the same in “Relative activity on ATP, pH 4.5” value: 0.1 for the first, 0.1 for the second.

B5 and B6 are the same in “Relative activity on ATP, pH 4.5” value: 0.9 for the first, 0.9 for the second.

Compared with B7, B8 is lower in “Relative activity on ATP, pH 4.5” value: 0.9 for the first, 0.7 for the second.

Going from B1 to B2, the “Relative activity on ATP, pH 5” value rises from 0.4 to 0.6.

First: B3
Second: B4
The “Relative activity on ATP, pH 5” value of the first is higher: 0.4 for the first, 0.3 for the second.

B5 and B6 are the same in “Relative activity on ATP, pH 5” value: 0.9 for the first, 0.9 for the second.

B7 and B8 are the same in “Relative activity on ATP, pH 5” value: 0.8 for the first, 0.8 for the second.

B1 and B2 are the same in “Relative activity on ATP, pH 5.5” value: 0.8 for the first, 0.8 for the second.

B3 and B4 are the same in “Relative activity on ATP, pH 5.5” value: 0.7 for the first, 0.7 for the second.

B5 and B6 are the same in “Relative activity on ATP, pH 5.5” value: 1.0 for the first, 1.0 for the second.

First: B7
Second: B8
The “Relative activity on ATP, pH 5.5” value of the first is lower: 0.7 for the first, 1.0 for the second.

First: B1
Second: B2
The “Relative activity on ATP, pH 6” value of the first is higher: 1.0 for the first, 0.9 for the second.

B3 and B4 are the same in “Relative activity on ATP, pH 6” value: 1.0 for the first, 1.0 for the second.

First: B5
Second: B6
The “Relative activity on ATP, pH 6” value of the first is higher: 1.0 for the first, 0.8 for the second.

Compared with B7, B8 is higher in “Relative activity on ATP, pH 6” value: 0.3 for the first, 0.8 for the second.

B1 and B2 are the same in “Relative activity on ATP, pH 6.5” value: 1.0 for the first, 1.0 for the second.

B3 and B4 are the same in “Relative activity on ATP, pH 6.5” value: 0.8 for the first, 0.8 for the second.

B5 and B6 are the same in “Relative activity on ATP, pH 6.5” value: 0.9 for the first, 0.9 for the second.

Compared with B7, B8 is higher in “Relative activity on ATP, pH 6.5” value: 0.2 for the first, 0.5 for the second.
